{
  "source": "patent US4286063A",
  "about": "“Method for producing thrombolytic preparation” (The Green Cross Corporation, priority 1978, dated 1981)",
  "key": {"[1]": {"test_system": "urokinase", "experiment": "Effect of heat stabilizers on residual urokinase activity after heat treatment", "type": "physicochemical", "conditions": "for residual urokinase activity in the presence of heat stabilizer: after heat treatment, concentrations of Table 2"}, "[2]": {"test_system": "urokinase", "experiment": "Stability of urokinase in heat treatment (60° C., 10 hours), dependence on pH", "type": "physicochemical", "description": "Dependence of the stability of urokinase in heat treatment on pH:\nA phosphate buffer solution was added in various concentrations to an aqueous urokinase solution [specific activity, 15,000 IU/mg; protein concentration, 0.02% (W/V)] to prepare samples of urokinase solutions having pH of 4, 5, 6, 7, 8, 9 and 10. Each sample was heated at 60° C. for 10 hours and the residual activity was compared. After the heat treatment, the heat stabilizer was removed by dialysis and the urokinase activity was assayed to calculate the ratio of residual activity by taking the specific activity before heating as 100%."}, "[3]": {"test_system": "urokinase", "experiment": "Residual urokinase activity and molecular weight distribution after dialysis against outer liquids of different pH", "type": "physicochemical, human urine", "conditions": "40 hours at 4° C.", "description": "The interrelationship between pH and the ratio of residual urokinase activity as well as the molecular weight distribution:\nThe resulting solution was dialyzed for 40 hours at 4° C. against an outer liquid of water, a 1 M sodium acetate buffer solution of pH 3.0, 4.0, 5.0, 6.0, 7.0, 8.0, 9.0, 11.0 or 12.0 or a 1/15 M phosphate buffer solution, while renewing the outer liquid at a time interval of 8 hours. After completion of the dialysis, the ratio of residual activity was assayed and molecular weight distribution was roughly evaluated by the molecular sieving by means of gel filtration technique."}, "[4]": {"conditions": "heat stabilizer concentration 5%"}, "[5]": {"conditions": "heat stabilizer concentration 10%"}, "[6]": {"conditions": "heat stabilizer concentration 15%"}, "[7]": {"conditions": "heat stabilizer concentration 0.1 M"}},
  "data": [
    {"molecule": "[Cl-].[Na+]", "note": "[Sodium chloride, sodium chloride]", "values": [
      {"measurement": "residual urokinase activity in the presence of heat stabilizer", "setting": "[1]", "result": "71-75%"},
      {"measurement": "Ratio of residual urokinase activity", "setting": "[1]; heat stabilizer concentration 0.15 M", "result": 71, "unit": "%"},
      {"measurement": "Ratio of residual urokinase activity", "setting": "[1]; heat stabilizer concentration 0.3 M", "result": 75, "unit": "%"}
    ]},
    {"molecule": "O=C(O)CN(CCN(CC(=O)O)CC(=O)O)CC(=O)O", "note": "[EDTA]", "values": [
      {"measurement": "Ratio of residual urokinase activity", "setting": "[1]; heat stabilizer concentration 0.1%", "result": 23, "unit": "%"}
    ]},
    {"molecule": "OC[C@H]1O[C@@](CO)(O[C@H]2O[C@H](CO)[C@@H](O)[C@H](O)[C@H]2O)[C@@H](O)[C@@H]1O", "note": "[Sucrose, sucrose]", "values": [
      {"measurement": "residual urokinase activity in the presence of heat stabilizer", "setting": "[1]", "result": "75-78%"},
      {"measurement": "Ratio of residual urokinase activity", "setting": "[1]; [4]", "result": 75, "unit": "%"},
      {"measurement": "Ratio of residual urokinase activity", "setting": "[1]; [5]", "result": 77, "unit": "%"},
      {"measurement": "Ratio of residual urokinase activity", "setting": "[1]; [6]", "result": 78, "unit": "%"}
    ]},
    {"molecule": "urokinase", "values": [
      {"measurement": "Ratio of residual urokinase activity", "setting": "[1]; heat stabilizer absent, pH 6.8 with 0.1 M phosphate buffer", "result": 65, "unit": "%"},
      {"measurement": "Ratio of residual urokinase activity", "setting": "[1]; no phosphate buffer, pH not adjusted", "result": 0, "unit": "%"},
      {"measurement": "ratio of residual activity after heat treatment", "setting": "[2]; pH 7, phosphate buffer", "result": 52, "unit": "%"},
      {"measurement": "ratio of residual activity after heat treatment", "setting": "[2]; pH 8, phosphate buffer", "result": 65, "unit": "%"},
      {"measurement": "ratio of residual activity after heat treatment", "setting": "[2]; pH 9, phosphate buffer", "result": 50, "unit": "%"},
      {"measurement": "Activity after dialysis", "setting": "[3]; Run 1, pH of outer liquid 3", "result": "6,324 IU"},
      {"measurement": "Ratio of residual activity", "setting": "[3]; Run 1, pH of outer liquid 3", "result": 65},
      {"measurement": "Activity after dialysis", "setting": "[3]; Run 2, pH of outer liquid 4", "result": "6,314 IU"},
      {"measurement": "Ratio of residual activity", "setting": "[3]; Run 2, pH of outer liquid 4", "result": 64},
      {"measurement": "Activity after dialysis", "setting": "[3]; Run 3, pH of outer liquid 5", "result": "6,426 IU"},
      {"measurement": "Ratio of residual activity", "setting": "[3]; Run 3, pH of outer liquid 5", "result": 66},
      {"measurement": "Activity after dialysis", "setting": "[3]; Run 4, pH of outer liquid 6", "result": "7,252 IU"},
      {"measurement": "Ratio of residual activity", "setting": "[3]; Run 4, pH of outer liquid 6", "result": 74},
      {"measurement": "Activity after dialysis", "setting": "[3]; Run 5, pH of outer liquid 7", "result": "8,296 IU"},
      {"measurement": "Ratio of residual activity", "setting": "[3]; Run 5, pH of outer liquid 7", "result": 85},
      {"measurement": "Activity after dialysis", "setting": "[3]; Run 6, pH of outer liquid 8", "result": "10,290 IU"},
      {"measurement": "Ratio of residual activity", "setting": "[3]; Run 6, pH of outer liquid 8", "result": 105},
      {"measurement": "Activity after dialysis", "setting": "[3]; Run 7, pH of outer liquid 9", "result": "9,672 IU"},
      {"measurement": "Ratio of residual activity", "setting": "[3]; Run 7, pH of outer liquid 9", "result": 99},
      {"measurement": "Activity after dialysis", "setting": "[3]; Run 8, pH of outer liquid 11", "result": "9,016 IU"},
      {"measurement": "Ratio of residual activity", "setting": "[3]; Run 8, pH of outer liquid 11", "result": 92},
      {"measurement": "Activity after dialysis", "setting": "[3]; Run 9, pH of outer liquid 12", "result": "8,722 IU"},
      {"measurement": "Ratio of residual activity", "setting": "[3]; Run 9, pH of outer liquid 12", "result": 89},
      {"measurement": "Activity after dialysis", "setting": "[3]; outer liquid H2O", "result": "8,514 IU"},
      {"measurement": "Ratio of residual activity", "setting": "[3]; outer liquid H2O", "result": 86}
    ]},
    {"molecule": "NCCCC[C@H](N)C(=O)O", "note": "[Lysine, lysine]", "values": [
      {"measurement": "residual urokinase activity in the presence of heat stabilizer", "setting": "[1]", "result": 78, "unit": "%"},
      {"measurement": "Ratio of residual urokinase activity", "setting": "[1]; [7]", "result": 78, "unit": "%"}
    ]},
    {"molecule": "N=C(N)NCCC[C@H](N)C(=O)O", "note": "[Arginine, arginine]", "values": [
      {"measurement": "residual urokinase activity in the presence of heat stabilizer", "setting": "[1]", "result": 79, "unit": "%"},
      {"measurement": "Ratio of residual urokinase activity", "setting": "[1]; [7]", "result": 79, "unit": "%"}
    ]},
    {"molecule": "OC[C@@H](O)[C@@H](O)[C@H](O)[C@H](O)CO", "note": "[Mannit, mannitol]", "values": [
      {"measurement": "residual urokinase activity in the presence of heat stabilizer", "setting": "[1]", "result": 78, "unit": "%"},
      {"measurement": "Ratio of residual urokinase activity", "setting": "[1]; [4]", "result": 73, "unit": "%"},
      {"measurement": "Ratio of residual urokinase activity", "setting": "[1]; [5]", "result": 73, "unit": "%"}
    ]},
    {"molecule": "Gelatin", "values": [
      {"measurement": "residual urokinase activity in the presence of heat stabilizer", "setting": "[1]", "result": "88-100%"},
      {"measurement": "Ratio of residual urokinase activity", "setting": "[1]; heat stabilizer concentration 0.5%", "result": 88, "unit": "%"},
      {"measurement": "Ratio of residual urokinase activity", "setting": "[1]; heat stabilizer concentration 1.0%", "result": 91, "unit": "%"},
      {"measurement": "Ratio of residual urokinase activity", "setting": "[1]; heat stabilizer concentration 3.0%", "result": 89, "unit": "%"}
    ]},
    {"molecule": "NCC(=O)O", "note": "[Glycine, glycine]", "values": [
      {"measurement": "residual urokinase activity in the presence of heat stabilizer", "setting": "[1]", "result": "65-75%"},
      {"measurement": "Ratio of residual urokinase activity", "setting": "[1]; [4]", "result": 65, "unit": "%"},
      {"measurement": "Ratio of residual urokinase activity", "setting": "[1]; [5]", "result": 70, "unit": "%"},
      {"measurement": "Ratio of residual urokinase activity", "setting": "[1]; [6]", "result": 75, "unit": "%"}
    ]}
  ]
}
